Test system: H-24 (His-ELP) (synthetic; E. coli BL21 expressed)
Assay: coacervate partitioning, fluorimetry
Conditions: EMSA in 2.5% agarose, 30 min incubation, 0.5 uM ssDNA1, fusions in 1x PBS (or 50% artificial fluids) at RT, His-ELPs at RT in 37 mM citric acid/126 mM Na2HPO4 …; for binding signal (% in coacervate): 60 C (LLPS 1)

GGGTTCCTTGCTAGCCAGAGAGCTCCCGGGCTCGACCTGGTCTAACAAGAGAGACC [ATTO488-ssDNA1]
binding signal (% in coacervate) (pH 6.5, artificial nasal swab fluid): 80
binding signal (% in coacervate) (pH 6.5, artificial saliva): 70
binding signal (% in coacervate) (pH 6.5, buffer): 60
binding signal (% in protein-poor supernatant) (pH 8, 300 mM NaCl, 30 C (LLPS 2)): > 90
